From patent US11622990 come the findings set out here.

In the assay the target is Recombinant human glucose-regulated protein GRP78 (human) (UniProt P11021). Put plainly: SPR (Biacore T200), recombinant human GRP78 coupled to a CM5 chip, peptide injected at 0.3125-20 µM.

For orientation: Kd means a measure of binding affinity in units of concentration. One may read the koff as the first-order rate constant of dissociation.

Sequence of Recombinant human glucose-regulated protein GRP78 (human) (P11021 19-654 limits assumed): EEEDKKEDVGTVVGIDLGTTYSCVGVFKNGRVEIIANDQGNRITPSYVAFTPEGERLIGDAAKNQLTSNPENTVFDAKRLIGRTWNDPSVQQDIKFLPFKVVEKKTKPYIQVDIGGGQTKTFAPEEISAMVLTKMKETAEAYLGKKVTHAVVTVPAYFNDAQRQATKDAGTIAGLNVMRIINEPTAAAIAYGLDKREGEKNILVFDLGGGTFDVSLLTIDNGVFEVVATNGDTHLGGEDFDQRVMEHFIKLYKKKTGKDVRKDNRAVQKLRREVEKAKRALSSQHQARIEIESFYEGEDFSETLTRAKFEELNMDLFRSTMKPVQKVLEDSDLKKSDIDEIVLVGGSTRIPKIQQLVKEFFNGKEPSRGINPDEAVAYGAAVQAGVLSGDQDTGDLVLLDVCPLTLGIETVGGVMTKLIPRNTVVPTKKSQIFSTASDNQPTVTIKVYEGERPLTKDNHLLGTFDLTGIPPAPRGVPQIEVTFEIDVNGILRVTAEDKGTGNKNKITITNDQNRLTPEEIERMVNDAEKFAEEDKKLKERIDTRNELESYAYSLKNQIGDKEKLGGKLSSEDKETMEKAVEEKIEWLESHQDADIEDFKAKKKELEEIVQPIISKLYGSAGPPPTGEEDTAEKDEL

On to SNTRVAP (all seven residues are D-configuration amino acids (^DS^DN^DT^DR^DV^DA^DP)) [SVAP (D-configuration peptide DS-DN-DT-DR-DV-DA-DP)], for which the Kd was found to be 5.22 µM and the koff is 0.0283 s⁻¹.
